# According to the supplement of paper PMC9112550, “Optimization of the antimicrobial peptide Bac7 by deep mutational scanning” (BMC Biology, 2022):
# Tested on: Escherichia coli TOP10
# Test: shrunken log2 fold change of peptide-encoding DNA abundance (4.5 h post-induction vs induction); higher = less antimicrobial activity (less host growth inhibition)
# Conditions: time post-induction: 4.5 h; library: site-saturation at positions 5, 18, 19, 20
# 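Also: peptides expressed intracellularly from a pBAD plasmid library in pooled LB shake-flask culture, induced with 0.3% L-arabinose, DNA abundance read by NGS, three biological replicates, DESeq2 with apeglm shrinkage.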
row,Sequence,shrunken log2 fold change
1,RRIRLRPPRLPRPRPRPQCLPRP,-0.455
2,RRIRLRPPRLPRPRPRPQGPPRP,-0.191
3,RRIRLRPPRLPRPRPRPQGYPRP,-0.141
4,RRIRLRPPRLPRPRPRPQHCPRP,-0.0642
5,RRIRLRPPRLPRPRPRPQIFPRP,-0.165
6,RRIRLRPPRLPRPRPRPQIGPRP,0.0441
7,RRIRLRPPRLPRPRPRPQKQPRP,0.17
8,RRIRLRPPRLPRPRPRPQLDPRP,0.0655
9,RRIRLRPPRLPRPRPRPQLEPRP,-0.0629
10,RRIRLRPPRLPRPRPRPQLFPRP,0.131
11,RRIRLRPPRLPRPRPRPQLPPRP,0.178
12,RRIRLRPPRLPRPRPRPQLVPRP,0.144
13,RRIRLRPPRLPRPRPRPQNKPRP,-0.432
14,RRIRLRPPRLPRPRPRPQPYPRP,-0.487
15,RRIRLRPPRLPRPRPRPQQFPRP,-0.0691
16,RRIRLRPPRLPRPRPRPQQKPRP,-0.167
17,RRIRLRPPRLPRPRPRPQQMPRP,-0.29
18,RRIRLRPPRLPRPRPRPQRAPRP,0.309
19,RRIRLRPPRLPRPRPRPQRFPRP,-0.142
20,RRIRLRPPRLPRPRPRPQRGPRP,0.111
21,RRIRLRPPRLPRPRPRPQRNPRP,-0.789
22,RRIRLRPPRLPRPRPRPQRVPRP,0.0215
23,RRIRLRPPRLPRPRPRPQSCPRP,0.123
24,RRIRLRPPRLPRPRPRPQVEPRP,0.0591
25,RRIRLRPPRLPRPRPRPQWFPRP,-0.0962

row,Sequence,shrunken log2 fold change
1,RRIRLRPPRLPRPRPRPQWIPRP,-0.0288
2,RRIRLRPPRLPRPRPRPQWMPRP,-0.0896
3,RRIRLRPPRLPRPRPRPQWPPRP,0.28
4,RRIRLRPPRLPRPRPRPQWSPRP,-0.0199
5,RRIRLRPPRLPRPRPRPQYFPRP,-0.158
6,RRIRLRPPRLPRPRPRPQYPPRP,-0.765
7,RRIRLRPPRLPRPRPRPRCCPRP,0.0851
8,RRIRLRPPRLPRPRPRPRCFPRP,-0.0548
9,RRIRLRPPRLPRPRPRPRCHPRP,-0.277
10,RRIRLRPPRLPRPRPRPRCKPRP,0.0707
11,RRIRLRPPRLPRPRPRPRCNPRP,-0.534
12,RRIRLRPPRLPRPRPRPREHPRP,0.204
13,RRIRLRPPRLPRPRPRPREKPRP,0.15
14,RRIRLRPPRLPRPRPRPRFSPRP,0.0406
15,RRIRLRPPRLPRPRPRPRFTPRP,0.0165
16,RRIRLRPPRLPRPRPRPRFWPRP,0.486
17,RRIRLRPPRLPRPRPRPRGCPRP,0.246
18,RRIRLRPPRLPRPRPRPRGNPRP,0.0735
19,RRIRLRPPRLPRPRPRPRHAPRP,0.537
20,RRIRLRPPRLPRPRPRPRHLPRP,-0.818
21,RRIRLRPPRLPRPRPRPRHQPRP,-0.254
22,RRIRLRPPRLPRPRPRPRITPRP,-0.027
23,RRIRLRPPRLPRPRPRPRIWPRP,0.394
24,RRIRLRPPRLPRPRPRPRKHPRP,-0.0984
25,RRIRLRPPRLPRPRPRPRKQPRP,0.0587

row,Sequence,shrunken log2 fold change
1,RRIRLRPPRLPRPRPRPRKTPRP,0.0104
2,RRIRLRPPRLPRPRPRPRLDPRP,0.363
3,RRIRLRPPRLPRPRPRPRLNPRP,-0.0854
4,RRIRLRPPRLPRPRPRPRLQPRP,0.15
5,RRIRLRPPRLPRPRPRPRPFPRP,0.358
6,RRIRLRPPRLPRPRPRPRPGPRP,0.687
7,RRIRLRPPRLPRPRPRPRPSPRP,0.435
8,RRIRLRPPRLPRPRPRPRRWPRP,0.497
9,RRIRLRPPRLPRPRPRPRSAPRP,0.29
10,RRIRLRPPRLPRPRPRPRWWPRP,0.13
11,RRIRLRPPRLPRPRPRPRYIPRP,-0.683
12,RRIRLRPPRLPRPRPRPRYPPRP,0.318
13,RRIRLRPPRLPRPRPRPSAGPRP,-0.0364
14,RRIRLRPPRLPRPRPRPSAIPRP,-0.189
15,RRIRLRPPRLPRPRPRPSCLPRP,-0.392
16,RRIRLRPPRLPRPRPRPSDNPRP,-0.49
17,RRIRLRPPRLPRPRPRPSEPPRP,-0.114
18,RRIRLRPPRLPRPRPRPSERPRP,-0.0849
19,RRIRLRPPRLPRPRPRPSFDPRP,-0.373
20,RRIRLRPPRLPRPRPRPSFHPRP,-0.457
21,RRIRLRPPRLPRPRPRPSHQPRP,-0.231
22,RRIRLRPPRLPRPRPRPSHTPRP,-0.258
23,RRIRLRPPRLPRPRPRPSHVPRP,-0.0453
24,RRIRLRPPRLPRPRPRPSHYPRP,-0.367
25,RRIRLRPPRLPRPRPRPSIGPRP,-0.378

row,Sequence,shrunken log2 fold change
1,RRIRLRPPRLPRPRPRPSIKPRP,-0.684
2,RRIRLRPPRLPRPRPRPSIVPRP,-0.294
3,RRIRLRPPRLPRPRPRPSKGPRP,-0.123
4,RRIRLRPPRLPRPRPRPSKKPRP,-0.0524
5,RRIRLRPPRLPRPRPRPSKTPRP,-0.258
6,RRIRLRPPRLPRPRPRPSLAPRP,0.13
7,RRIRLRPPRLPRPRPRPSLKPRP,0.0368
8,RRIRLRPPRLPRPRPRPSLMPRP,0.126
9,RRIRLRPPRLPRPRPRPSLWPRP,0.062
10,RRIRLRPPRLPRPRPRPSMTPRP,1.72
11,RRIRLRPPRLPRPRPRPSPGPRP,0.0266
12,RRIRLRPPRLPRPRPRPSSDPRP,0.128
13,RRIRLRPPRLPRPRPRPSSVPRP,0.0713
14,RRIRLRPPRLPRPRPRPSVFPRP,-0.364
15,RRIRLRPPRLPRPRPRPSVNPRP,-0.822
16,RRIRLRPPRLPRPRPRPSVQPRP,-0.57
17,RRIRLRPPRLPRPRPRPSVVPRP,-0.196
18,RRIRLRPPRLPRPRPRPSWEPRP,0.0244
19,RRIRLRPPRLPRPRPRPSWHPRP,0.25
20,RRIRLRPPRLPRPRPRPSWQPRP,-0.0855
21,RRIRLRPPRLPRPRPRPSYHPRP,-0.686
22,RRIRLRPPRLPRPRPRPTARPRP,1.13
23,RRIRLRPPRLPRPRPRPTAYPRP,-0.047
24,RRIRLRPPRLPRPRPRPTCHPRP,0.000681
25,RRIRLRPPRLPRPRPRPTDVPRP,-0.524

row,Sequence,shrunken log2 fold change
1,RRIRLRPPRLPRPRPRPTECPRP,-0.243
2,RRIRLRPPRLPRPRPRPTEVPRP,-0.126
3,RRIRLRPPRLPRPRPRPTFKPRP,-0.0433
4,RRIRLRPPRLPRPRPRPTHFPRP,0.362
5,RRIRLRPPRLPRPRPRPTIIPRP,0.0804
6,RRIRLRPPRLPRPRPRPTINPRP,-0.524
7,RRIRLRPPRLPRPRPRPTLFPRP,0.0945
8,RRIRLRPPRLPRPRPRPTLTPRP,0.26
9,RRIRLRPPRLPRPRPRPTNDPRP,-0.288
10,RRIRLRPPRLPRPRPRPTNIPRP,-0.421
11,RRIRLRPPRLPRPRPRPTNPPRP,-0.348
12,RRIRLRPPRLPRPRPRPTPHPRP,0.322
13,RRIRLRPPRLPRPRPRPTQSPRP,0.144
14,RRIRLRPPRLPRPRPRPTTSPRP,-0.0271
15,RRIRLRPPRLPRPRPRPTTTPRP,0.00266
16,RRIRLRPPRLPRPRPRPTVRPRP,-0.107
17,RRIRLRPPRLPRPRPRPTYRPRP,-0.266
18,RRIRLRPPRLPRPRPRPVCEPRP,0.39
19,RRIRLRPPRLPRPRPRPVDWPRP,0.252
20,RRIRLRPPRLPRPRPRPVDYPRP,-0.434
21,RRIRLRPPRLPRPRPRPVHVPRP,-0.0937
22,RRIRLRPPRLPRPRPRPVMCPRP,0.142
23,RRIRLRPPRLPRPRPRPVNHPRP,0.197
24,RRIRLRPPRLPRPRPRPVNVPRP,-0.00443
25,RRIRLRPPRLPRPRPRPVQCPRP,0.079

row,Sequence,shrunken log2 fold change
1,RRIRLRPPRLPRPRPRPVSIPRP,-0.321
2,RRIRLRPPRLPRPRPRPVSRPRP,0.0317
3,RRIRLRPPRLPRPRPRPVWEPRP,0.0556
4,RRIRLRPPRLPRPRPRPVWRPRP,0.299
5,RRIRLRPPRLPRPRPRPVYMPRP,-0.283
6,RRIRLRPPRLPRPRPRPVYQPRP,-0.0597
7,RRIRLRPPRLPRPRPRPVYVPRP,-0.367
8,RRIRLRPPRLPRPRPRPWAQPRP,0.249
9,RRIRLRPPRLPRPRPRPWCGPRP,-0.0859
10,RRIRLRPPRLPRPRPRPWCSPRP,-1.02
11,RRIRLRPPRLPRPRPRPWCWPRP,0.0542
12,RRIRLRPPRLPRPRPRPWDPPRP,-0.125
13,RRIRLRPPRLPRPRPRPWDRPRP,-0.0145
14,RRIRLRPPRLPRPRPRPWFNPRP,-0.388
15,RRIRLRPPRLPRPRPRPWGLPRP,0.171
16,RRIRLRPPRLPRPRPRPWGQPRP,-0.0472
17,RRIRLRPPRLPRPRPRPWGWPRP,0.264
18,RRIRLRPPRLPRPRPRPWIKPRP,-0.187
19,RRIRLRPPRLPRPRPRPWIPPRP,-0.0167
20,RRIRLRPPRLPRPRPRPWMCPRP,-0.492
21,RRIRLRPPRLPRPRPRPWMYPRP,-0.0417
22,RRIRLRPPRLPRPRPRPWNIPRP,-0.176
23,RRIRLRPPRLPRPRPRPWNKPRP,-0.436
24,RRIRLRPPRLPRPRPRPWNPPRP,-0.059
25,RRIRLRPPRLPRPRPRPWRGPRP,0.277
